PMC2384007 (PLoS ONE, 2008)

How the values were obtained:
[1] = target: Mycobacterium tuberculosis Biotin Protein Ligase (Mycobacterium tuberculosis) (UniProt I6YFP0)
[2] = target: T1, Biotin Protein Ligase (MtBPL) (Mycobacterium tuberculosis, UniProt I6YFP0); assay: ITC (VP-ITC, […]°C); format: binding
T1 construct: gene birA; 266 amino acids, hexahistidine tag at N-terminus
T1 sequence (I6YFP0 whole entry, looked up): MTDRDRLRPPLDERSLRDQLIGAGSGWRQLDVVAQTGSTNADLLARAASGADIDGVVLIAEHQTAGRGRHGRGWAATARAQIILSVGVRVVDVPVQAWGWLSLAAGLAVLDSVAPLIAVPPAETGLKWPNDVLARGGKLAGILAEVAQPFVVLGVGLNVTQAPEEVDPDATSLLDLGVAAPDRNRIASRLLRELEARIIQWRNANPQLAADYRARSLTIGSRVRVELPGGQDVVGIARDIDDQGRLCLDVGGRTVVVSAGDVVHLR

Mycobacterium tuberculosis Biotin Protein Ligase (Mycobacterium tuberculosis), sequence (I6YFP0 whole entry): as the sequence (I6YFP0 whole entry, looked up) above

Row | Compound | Km for BCCP in the MtBPL catalysed incorporation of [14C]-biotin into BCCP (steady state kinetics, Michaelis-Menten fit) [1] | Kd [2]
1 | biotin carboxyl carrier protein (BCCP) domain of M. tuberculosis acetyl CoA carboxylase (domain or fragment) | 5.2 µM | –
2 | Nc1ncnc2c1ncn2[C@@H]1O[C@H](COP(=O)(O)OC(=O)CCCC[C@@H]2SC[C@@H]3NC(=O)N[C@@H]32)[C@@H](O)[C@H]1O [bio-5′-AMP] | – | 1360 nM
